Measured values taken from IntAct's records for PubMed 20627101.

B1: Induced myeloid leukemia cell differentiation protein Mcl-1 homolog (Mus musculus), P97287 (parent)
chain: MFGLRRNAVIGLNLYCGGASLGAGGGSPAGARLVAEEAKARREGGGEAALLPGARVVARPPPVGAEDPDVTASAERRLHKSPGLLAVPPEEMAASAAAAIVSPEEELDGCEPEAIGKRPAVLPLLERVSEAAKSSGADGSLPSTPPPPEEEEDDLYRQSLEIISRYLREQATGSKDSKPLGEAGAAGRRALETLRRVGDGVQRNHETAFQGMLRKLDIKNEGDVKSFSRVMVHVFKDGVTNWGRIVTLISFGAFVAKHLKSVNQESFIEPLAETITDVLVRTKRDWLVKQRGWDGFVEFFHVQDLEGGIRNVLLAFAGVAGVGAGLAYLIR

Variants of: B1
Conditions: with ch60_human HSPD1, P10809
Sequence of ch60_human HSPD1, P10809 (P10809 whole entry): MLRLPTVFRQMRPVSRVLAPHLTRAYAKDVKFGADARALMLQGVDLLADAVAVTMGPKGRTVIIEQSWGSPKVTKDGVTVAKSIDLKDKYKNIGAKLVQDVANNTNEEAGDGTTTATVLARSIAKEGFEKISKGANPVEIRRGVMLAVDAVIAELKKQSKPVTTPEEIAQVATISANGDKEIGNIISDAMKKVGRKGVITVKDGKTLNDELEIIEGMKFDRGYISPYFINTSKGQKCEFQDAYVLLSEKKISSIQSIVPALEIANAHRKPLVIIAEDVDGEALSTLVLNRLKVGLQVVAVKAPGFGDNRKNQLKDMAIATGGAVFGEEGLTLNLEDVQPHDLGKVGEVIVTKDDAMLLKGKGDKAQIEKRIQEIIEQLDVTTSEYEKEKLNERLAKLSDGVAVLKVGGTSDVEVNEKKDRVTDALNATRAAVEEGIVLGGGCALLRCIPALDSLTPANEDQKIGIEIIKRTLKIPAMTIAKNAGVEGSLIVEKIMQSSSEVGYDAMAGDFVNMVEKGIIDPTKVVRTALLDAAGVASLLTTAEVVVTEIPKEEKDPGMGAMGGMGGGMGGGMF

Effect of a mutation on the interaction, disrupting interaction:
MFGLGRNAVIGLNLYCGGASLGAGGGSPAGARLVAEEAKARREGGGEAALLPGARVVARPPPVGAEDPDVTASAERRLHKSPGLLAVPPEEMAASAAAAIVSPEEELDGCEPEAIGKRPAVLPLLERVSEAAKSSGADGSLPSTPPPPEEEEDDLYRQSLEIISRYLREQATGSKDSKPLGEAGAAGRRALETLRRVGDGVQRNHETAFQGMLRKLDIKNEGDVKSFSRVMVHVFKDGVTNWGRIVTLISFGAFVAKHLKSVNQESFIEPLAETITDVLVRTKRDWLVKQRGWDGFVEFFHVQDLEGGIRNVLLAFAGVAGVGAGLAYLIR [R5G]
MFGLRGNAVIGLNLYCGGASLGAGGGSPAGARLVAEEAKARREGGGEAALLPGARVVARPPPVGAEDPDVTASAERRLHKSPGLLAVPPEEMAASAAAAIVSPEEELDGCEPEAIGKRPAVLPLLERVSEAAKSSGADGSLPSTPPPPEEEEDDLYRQSLEIISRYLREQATGSKDSKPLGEAGAAGRRALETLRRVGDGVQRNHETAFQGMLRKLDIKNEGDVKSFSRVMVHVFKDGVTNWGRIVTLISFGAFVAKHLKSVNQESFIEPLAETITDVLVRTKRDWLVKQRGWDGFVEFFHVQDLEGGIRNVLLAFAGVAGVGAGLAYLIR [R6G]
MFGLRRNAVIGLNLYCGGASLGAGGGSPAGAGLVAEEAKARREGGGEAALLPGARVVARPPPVGAEDPDVTASAERRLHKSPGLLAVPPEEMAASAAAAIVSPEEELDGCEPEAIGKRPAVLPLLERVSEAAKSSGADGSLPSTPPPPEEEEDDLYRQSLEIISRYLREQATGSKDSKPLGEAGAAGRRALETLRRVGDGVQRNHETAFQGMLRKLDIKNEGDVKSFSRVMVHVFKDGVTNWGRIVTLISFGAFVAKHLKSVNQESFIEPLAETITDVLVRTKRDWLVKQRGWDGFVEFFHVQDLEGGIRNVLLAFAGVAGVGAGLAYLIR [R32G]
